Data published in PMC9239266 (mBio, 2022).

B1: CopC ΔN50 (recombinant) (domain or fragment)
chain: AAGKIGAFLRKAVAAQSYGLMFANGKLFEATGDALEKRGQYGFSALQRLDGLSRRNLAAVEARLGALDSAERGLKERIMTGAWHFRHQSNAALDDGKTAAIASNHLLARESRSSGGNTFAGDKALLSNHDFVFFGVEFSGRGKQDKPLNHKHSTMDFGANAYVVPDTLPACRHGYLTLTDHFFNRVPGGREAEHQDFVGSFPQMGAETGRWIHEGKYRQNAPIFNYRDMKAAVALHLIEFLRDSKDAAFKAYVFDQAMQSGQALDRVLNSVFQAEFHIPRLMATTDYAKHPLRPMLLKEAVDSVNLPALSGLVSSKGDAVTAMWHAIDKGKDAVAAHLLGNWRFEAGDFASAPPGFYHELNYALSEHGASVYILDQFLSRGWAAVNAPFEHVNSGETMLDNAVKYGNREMAAALIKHGADRNLLSEWNGGKLDALLA
notes: also called CopC Δ50; source: E. coli BL21(DE3), purified (glutathione-Sepharose, GST removed by PreScission protease)
B2: caspase-7 p30 (C186A), ΔN23 (enzyme, human, UniProt P55210 24-303, looked up)
chain: AKPDRSSFVPSLFSKKKKNVTMRSIKTTRDRVPTYQYNMNFEKLGKCIIINNKNFDKVTGMGVRNGTDKDAEALFKCFRSLGFDVIVYNDCSCAKMQDLLKKASEEDHTNAACFACILLSHGEENVIYGKDGVTPIKDLTAHFRGDRCKTLLEKPKLFFIQAARGTELDDGIQADSGPINDTDANPRYKIPVEADFLFAYSTVPGYYSWRSPGRGSWFVQALCSILEEHGKDLEIMQILTRVNDRVARHFESQSDDPHFHEKKQIPCVVSMLTKELYFSQ
notes: also called CASP7 p30^C186A; caspase-7 p30 (C/A); source: E. coli BL21(DE3), purified (Ni-Sepharose)

What was measured:
recombinant CaM = target: T1, recombinant CaM (human, UniProt P0DP23 1-149); experiment: SEC; conditions: both partners purified
T1 construct: also called calmodulin; Ca^2+-free CaM

CopC ΔN50 (recombinant) = target: B1; experiment: SEC; conditions: both partners purified

| Binder | binding result (recombinant CaM) | binding result (CopC ΔN50 (recombinant)) |
| --- | --- | --- |
| B1 | binds |  |
| B2 |  | binds |
